Laboratory results as given in patent US20260242735A1 (UNIVERSIT T BASEL, published 2026).

Experiments:
Assay in all cases: alanine scan, flow cytometry, HEK293-T;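 note: antibody binding to each alanine-substituted CD33 mutant expressed transiently in HEK293-T, read as fluorescence minus background, mean of duplicates, relative to wild-type CD33 set as 100%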
[1] = molecular target: human CD33 P175A (human, UniProt P20138 18-364)
[2] = molecular target: human CD33 S181A (human, UniProt P20138 18-364)
[3] = molecular target: human CD33 A182S (human, UniProt P20138 18-364)
[4] = molecular target: human CD33 A183S (human, UniProt P20138 18-364)
[5] = molecular target: human CD33 G188A (human, UniProt P20138 18-364)
[6] = molecular target: human CD33 P189A (human, UniProt P20138 18-364)
[7] = molecular target: human CD33 T192A (human, UniProt P20138 18-364)
[8] = molecular target: human CD33 V196A (human, UniProt P20138 18-364)
[9] = molecular target: human CD33 P201A (human, UniProt P20138 18-364)
[10] = molecular target: human CD33 P203A (human, UniProt P20138 18-364)
[11] = molecular target: human CD33 D205A (human, UniProt P20138 18-364)
[12] = molecular target: human CD33 H206A (human, UniProt P20138 18-364)
[13] = molecular target: human CD33 F216A (human, UniProt P20138 18-364)
[14] = molecular target: human CD33 A168S (human, UniProt P20138 18-364)
[15] = molecular target: human CD33 T226A (human, UniProt P20138 18-364)
[16] = molecular target: human CD33 L229A (human, UniProt P20138 18-364)
[17] = molecular target: human CD33 V231A (human, UniProt P20138 18-364)
[18] = molecular target: human CD33 V234A (human, UniProt P20138 18-364)
human CD33 V234A, sequence (P20138 18-364 V234A limits assumed): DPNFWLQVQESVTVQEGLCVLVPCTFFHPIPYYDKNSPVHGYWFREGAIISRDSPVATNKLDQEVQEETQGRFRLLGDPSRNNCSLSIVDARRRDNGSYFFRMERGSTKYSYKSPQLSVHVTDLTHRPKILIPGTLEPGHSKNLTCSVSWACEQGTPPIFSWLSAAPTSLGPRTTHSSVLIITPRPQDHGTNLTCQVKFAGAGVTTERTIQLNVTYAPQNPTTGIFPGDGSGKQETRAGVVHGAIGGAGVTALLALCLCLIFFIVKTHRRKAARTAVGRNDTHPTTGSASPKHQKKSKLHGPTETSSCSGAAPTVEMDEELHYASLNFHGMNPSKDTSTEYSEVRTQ

human CD33 A168S, sequence (P20138 18-364 A168S limits assumed): as the sequence (P20138 18-364 V234A limits assumed) above, with A151S, A217V counted along it
human CD33 V196A, sequence (P20138 18-364 V196A limits assumed): as the sequence (P20138 18-364 V234A limits assumed) above, with V179A, A217V counted along it
human CD33 P203A, sequence (P20138 18-364 P203A limits assumed): as the sequence (P20138 18-364 V234A limits assumed) above, with P186A, A217V counted along it
human CD33 H206A, sequence (P20138 18-364 H206A limits assumed): as the sequence (P20138 18-364 V234A limits assumed) above, with H189A, A217V counted along it
human CD33 P175A, sequence (P20138 18-364 P175A limits assumed): as the sequence (P20138 18-364 V234A limits assumed) above, with P158A, A217V counted along it
human CD33 S181A, sequence (P20138 18-364 S181A limits assumed): as the sequence (P20138 18-364 V234A limits assumed) above, with S164A, A217V counted along it
human CD33 F216A, sequence (P20138 18-364 F216A limits assumed): as the sequence (P20138 18-364 V234A limits assumed) above, with F199A, A217V counted along it
human CD33 D205A, sequence (P20138 18-364 D205A limits assumed): as the sequence (P20138 18-364 V234A limits assumed) above, with D188A, A217V counted along it
human CD33 T226A, sequence (P20138 18-364 T226A limits assumed): as the sequence (P20138 18-364 V234A limits assumed) above, with T209A, A217V counted along it
human CD33 G188A, sequence (P20138 18-364 G188A limits assumed): as the sequence (P20138 18-364 V234A limits assumed) above, with G171A, A217V counted along it
human CD33 P189A, sequence (P20138 18-364 P189A limits assumed): as the sequence (P20138 18-364 V234A limits assumed) above, with P172A, A217V counted along it
human CD33 V231A, sequence (P20138 18-364 V231A limits assumed): as the sequence (P20138 18-364 V234A limits assumed) above, with V214A, A217V counted along it
human CD33 A182S, sequence (P20138 18-364 A182S limits assumed): as the sequence (P20138 18-364 V234A limits assumed) above, with A165S, A217V counted along it
human CD33 T192A, sequence (P20138 18-364 T192A limits assumed): as the sequence (P20138 18-364 V234A limits assumed) above, with T175A, A217V counted along it
human CD33 L229A, sequence (P20138 18-364 L229A limits assumed): as the sequence (P20138 18-364 V234A limits assumed) above, with L212A, A217V counted along it
human CD33 A183S, sequence (P20138 18-364 A183S limits assumed): as the sequence (P20138 18-364 V234A limits assumed) above, with A166S, A217V counted along it
human CD33 P201A, sequence (P20138 18-364 P201A limits assumed): as the sequence (P20138 18-364 V234A limits assumed) above, with P184A, A217V counted along it

Mean % WT Binding [1]	Mean % WT Binding [2]	Mean % WT Binding [3]	Mean % WT Binding [4]	Mean % WT Binding [5]	Mean % WT Binding [6]	Mean % WT Binding [7]	Mean % WT Binding [8]	Mean % WT Binding [9]	Mean % WT Binding [10]	Mean % WT Binding [11]	Mean % WT Binding [12]	Mean % WT Binding [13]	Mean % WT Binding [14]	Mean % WT Binding [15]	Mean % WT Binding [16]	Mean % WT Binding [17]	Mean % WT Binding [18]	Binder
103%	116%	115%	119%	130%	116%	119%	106%	110%	109%	2.8%	110%	101%	110%	112%	113%	112%	117%	Refmab #2 (antibody, V domains shown, In the alanine scan antibodies were used as IgG or Fab) VH: QVQLVQSGAEVKKPGSSVKVSCKASGGTFSDYAISWVRQAPGQGLEWMGRIIPILGVADYAQKFQGRVTITADKSTRTAYMELSSLRSEDTAVYYCARNWADAFDIWGQGTMVTVSS VL: DIQLTQSPSSLSASVGDRVTITCRASQGISSVLAWYQQKPGKAPKLLIYDASSLESGVPSRFSGSGSGTDFTLTISSLQPEDFATYYCQQFDSSITFGQGTKLEIK
106%	128%	127%	117%	85.1%	95.5%	102%	105%	90.9%	105%	8.1%	97.3%	152%	99.2%	100%	150%	153%	88.7%	Refmab #3 (antibody, V domains shown, In the alanine scan antibodies were used as IgG or Fab) VH: QVQLVQSGAEVKKPGSSVKVSCKASGYTFTDYNMHWVRQAPGQGLEWIGYIYPYNGGTGYNQKFKSKATITADESTNTAYMELSSLRSEDTAVYYCARGRPAMDYWGQGTLVTVSS VL: DIQMTQSPSSLSASVGDRVTITCRASESVDNYGISFMNWFQQKPGKAPKLLIYAASNQGSGVPSRFSGSGSGTDFTLTISSLQPDDFATYYCQQSKEVPWTFGQGTKVEIK
